The text below walks through data of the supplement of paper PMC7877785.

The data set can be described thus: self-splicing fitness, log relative to wild type (ln ratio); higher = more splicing; Tetrahymena group I intron in knt gene, E. coli kanamycin selection, DiMSum; sequences stand for … in CUCUCU…GGAGGGAAAAGUUAUCAGGCAUGCACCUGGUAGCUAGUCUUUAAACCAAUAGAUUGCAUCGGUUUAAAAGGCAAGACCGUCAAAUUGCGGGAAAGGGGUCAACAGCCGUUCAGUACCAAGUCUCAGGGGAAACUUUGAGAUGGCCUUGCAAAGGGUAUGGUAAUAAGCUGACGGACAUGGUCCUAACCACGCAGCCAAGUCCUAAGUCAACAGAUCUUCUGUUGAUAUGGAUGCAGUUCACAGACUAAAUGUCGGUCGGGGAAGAUGUAUUCUUCUCAUAAGAUAUAGUCGGACCUCUCCUUAAUGGGAGCUAGCGGAUGAAGUGAUGCAACACUGGAGCCGCUGGGAACUAAUUUGUAUGCGAAAGUAUAUUGAUUAGUUUUGGAGUACUCGUGGUCG
An outline of the steps:
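The eight P1ex-region nucleotides of an intron in the knt kanamycin-resistance gene on pET-22b(+) were all randomised and the library put into E. coli BL21(DE3). Six replicate transformations were grown overnight at 37°C or 30°C on LB agar with or without 25 μg/mL kanamycin, together with 100 μg/mL carbenicillin, 50 μM IPTG and 0.2% rhamnose. Colonies were pooled and amplicon-sequenced on an Illumina HiSeq 2500. Fitness from DiMSum is the error-weighted combination of wild-type-normalised replicate fold changes, kanamycin over none.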

± gives the uncertainty stated by the source.

CGGGAGCAAUAUUACGCUGU: the “self-splicing fitness (ln)” value was -2.76 ± 0.33 (30 °C) and -2.43 ± 0.34 (37 °C).
For the sequence CGGGAGCAAUAUUACGGAAU, the “self-splicing fitness (ln)” value (30 °C) was -4.07 ± 0.46 and the “self-splicing fitness (ln)” value (37 °C) is -1.42 ± 0.43.
Turning to CGGGAGCAAUAUUACGGAGG, the “self-splicing fitness (ln)” value runs as follows: (30 °C) -3.27 ± 0.15; (37 °C) -3.12 ± 0.3.
For CGGGAGCAAUAUUACGGAUC the same measures were -3.09 ± 0.43 and -2.07 ± 0.42.
In the case of CGGGAGCAAUAUUACGGCCG, the “self-splicing fitness (ln)” value (30 °C) is -3.09 ± 0.31.
In the case of CGGGAGCAAUAUUACGGCCU, the “self-splicing fitness (ln)” value (30 °C) was -3.25 ± 0.31 and the “self-splicing fitness (ln)” value (37 °C) was -2.88 ± 0.44.
For the sequence CGGGAGCAAUAUUACGGCUG, the “self-splicing fitness (ln)” value (30 °C) is -2.43 ± 0.25 and the “self-splicing fitness (ln)” value (37 °C) is -2.14 ± 0.34.
Regarding CGGGAGCAAUAUUACGGGCG, the “self-splicing fitness (ln)” value by setting is: (30 °C) -2.44 ± 0.31; (37 °C) -2.67 ± 0.41.
For CGGGAGCAAUAUUACGGGUA the same measures were -2.54 ± 0.21 and -1.75 ± 0.2.
For CGGGAGCAAUAUUACGGUUA the same measures were -3.42 ± 0.25 and -2.69 ± 0.29.
Consider CGGGAGCAAUAUUACGUGGA, for which the “self-splicing fitness (ln)” value runs as follows: (30 °C) -2.06 ± 0.15; (37 °C) -3.14 ± 0.23.
For CGGGAGCAAUAUUACGUGUU the same measures were -5.29 ± 0.38 and -2.2 ± 0.25.
As for CGGGAGCAAUAUUACGUUAG, the “self-splicing fitness (ln)” value by setting is: (30 °C) -3.18 ± 0.26; (37 °C) -1.9 ± 0.29.
With CGGGAGCAAUAUUACGUUCG, the “self-splicing fitness (ln)” value reads like this: (30 °C) -3.74 ± 0.47; (37 °C) -1.75 ± 0.27.
On to CGGGAGCAAUAUUACGUUUG, for which the “self-splicing fitness (ln)” value runs as follows: (30 °C) -2.75 ± 0.17; (37 °C) -2.11 ± 0.19.
As for CGGUAGCAAUAUUACGAACU, the “self-splicing fitness (ln)” value reads like this: (30 °C) -1.3 ± 0.17; (37 °C) -0.755 ± 0.17.
As to CGGUAGCAAUAUUACGAAGU, the “self-splicing fitness (ln)” value is -2.86 ± 0.3 (30 °C) and -1.85 ± 0.25 (37 °C).
On to CGGUAGCAAUAUUACGAUAU, for which the “self-splicing fitness (ln)” value is, setting by setting: (30 °C) -3.58 ± 0.31; (37 °C) -1.33 ± 0.24.
With CGGUAGCAAUAUUACGAUGU, the “self-splicing fitness (ln)” value is -0.932 ± 0.093 (30 °C) and -0.763 ± 0.15 (37 °C).
For CGGUAGCAAUAUUACGCAUU, the “self-splicing fitness (ln)” value (37 °C) is -2.5 ± 0.24.
Consider CGGUAGCAAUAUUACGCCUA, for which the “self-splicing fitness (ln)” value is -0.535 ± 0.14 (30 °C) and -0.215 ± 0.11 (37 °C).
Consider CGGUAGCAAUAUUACGCCUG, for which the “self-splicing fitness (ln)” value was -1.32 ± 0.13 (30 °C) and -0.225 ± 0.11 (37 °C).
As for CGGUAGCAAUAUUACGCGAU, the “self-splicing fitness (ln)” value is -2.23 ± 0.35 (30 °C) and -2.41 ± 0.44 (37 °C).
For the sequence CGGUAGCAAUAUUACGCUCU, the “self-splicing fitness (ln)” value is -2.71 ± 0.24 (30 °C) and -2.43 ± 0.33 (37 °C).
For CGGUAGCAAUAUUACGGACG, the “self-splicing fitness (ln)” value was -0.708 ± 0.1 (30 °C) and -0.837 ± 0.13 (37 °C).
Turning to CGGUAGCAAUAUUACGGGGU, the “self-splicing fitness (ln)” value was -4.08 ± 0.3 (30 °C) and -2.81 ± 0.22 (37 °C).
For the sequence CGGUAGCAAUAUUACGGUUU, the “self-splicing fitness (ln)” value by setting is: (30 °C) -3.36 ± 0.16; (37 °C) -1.83 ± 0.15.
With CGGUAGCAAUAUUACGUACG, the “self-splicing fitness (ln)” value was -1.3 ± 0.12 (30 °C) and -0.879 ± 0.16 (37 °C).
Consider CGGUAGCAAUAUUACGUAUG, for which the “self-splicing fitness (ln)” value runs as follows: (30 °C) -0.225 ± 0.092; (37 °C) 0.297 ± 0.12.
On to CGGUAGCAAUAUUACGUCAG, for which the “self-splicing fitness (ln)” value reads like this: (30 °C) -0.671 ± 0.15; (37 °C) -1.09 ± 0.17.
Turning to CGGUAGCAAUAUUACGUCCG, the “self-splicing fitness (ln)” value is -2.86 ± 0.3 (30 °C) and -2.02 ± 0.36 (37 °C).
Take CGGUAGCAAUAUUACGUGAU: the “self-splicing fitness (ln)” value runs as follows: (30 °C) -1.49 ± 0.14; (37 °C) -0.851 ± 0.18.
For the sequence CGGUAGCAAUAUUACGUGGC, the “self-splicing fitness (ln)” value was -3.4 ± 0.17 (30 °C) and -3.09 ± 0.23 (37 °C).
Regarding CGGUAGCAAUAUUACGUGUA, the “self-splicing fitness (ln)” value reads like this: (30 °C) -3.31 ± 0.2; (37 °C) -2.97 ± 0.28.
As to CGGUAGCAAUAUUACGUUCG, the “self-splicing fitness (ln)” value was -2.19 ± 0.14 (30 °C) and -1.99 ± 0.24 (37 °C).
For CGUAAGCAAUAUUACGAAUC, where the note is “37 °C”, the “self-splicing fitness (ln)” value was -2.06 ± 0.3.
CGUAAGCAAUAUUACGAGAG: the “self-splicing fitness (ln)” value runs as follows: (30 °C) -3.56 ± 0.22; (37 °C) -3.14 ± 0.28.
On to CGUAAGCAAUAUUACGAGCA, for which the “self-splicing fitness (ln)” value is -1.84 ± 0.48 (30 °C) and -1.33 ± 0.22 (37 °C).
